Data from patent US20190338002A1 (Pieris, published 2019).

Experiments:
[1] = biological target: T1, rat beta CGRP (SEQ ID NO: 83) (rat, not fully specified); test: SPR Biacore 37 °C, protein captured as ligand, rb CGRP (1-37) injected, 1:1 fit of a flat sensorgram; run 130301_NAN-DS-049
T1 construct: also called rat βCGRP; rat β-CGRP
T1 peptide: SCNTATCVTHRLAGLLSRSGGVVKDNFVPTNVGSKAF
Procedure: (§1) The Biotin CAPture Kit (GE Healthcare) was used to immobilize biotinylated lipocalin muteins to a chip surface. Muteins were biotinylated using standard NHS chemistry. Undiluted Biotin CAPture Reagent (streptavidin conjugated with ss-DNA oligo) was captured on a Sensor Chip CAP with the pre-immobilized complementary ss-DNA oligo. Thereafter, biotinylated muteins at 1 μg/mL were applied for 300 s at a flow rate of 5 μL/min.
(§2) CGRP species were applied in three concentrations of 30 nM, 3 nM and 0.3 nM at a flow rate of 30 μL/min or in a single concentration of 25 nM per cycle as shown in FIG. 2. The dilutions were injected with association times of 180 s and dissociation times of 5400 sec to obtain ka and kd information. Regeneration of the chip surface was achieved by injecting 6 M Guanidinium-HCl+0.25 M NaOH (120 s) with a flow rate of 10 μL/min. […]
(§3) The data were double-referenced by subtraction of the corresponding signals measured for the control channel (loaded with Biotin CAPture reagent only) and by subtraction of buffer injections from the binding responses. Association rate constant ka and dissociation rate constant kd for the binding reaction were determined using Biacore T200 Evaluation Software V2.0 for data processing and kinetic fitting. […]

[2] = biological target: T2, rat alpha CGRP (SEQ ID NO: 82) (rat); test: SPR Biacore 37 °C, protein captured as ligand, ra CGRP (1-37) injected, 1:1 fit of a flat sensorgram; run 130301_NAN-DS-049
T2 construct: also called rat αCGRP; rat α-CGRP
T2 peptide: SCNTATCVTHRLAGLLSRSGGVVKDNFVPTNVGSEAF
Procedure: as §1, §2, §3

[3] = biological target: T1, rat beta CGRP (SEQ ID NO: 83); test: SPR Biacore 37 °C, protein captured as ligand, rb CGRP (1-37) injected, 1:1 fit of a flat sensorgram; run 130208_NAN-DS-047 [contd]
Procedure: as §1, §2, §3

[4] = biological target: T3, human beta CGRP (SEQ ID NO: 81) (human, not fully specified); test: SPR Biacore 37 °C, protein captured as ligand, hb CGRP (1-37) injected, 1:1 fit of a flat sensorgram; run 130208_NAN-DS-047 [contd]
T3 construct: also called human βCGRP; hβCGRP
T3 peptide: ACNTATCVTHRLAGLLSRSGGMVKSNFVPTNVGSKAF
Procedure: as §1, §2, §3

[5] = biological target: T4, human alpha CGRP (SEQ ID NO: 80) (human, not fully specified); test: SPR Biacore 37 °C, protein captured as ligand, ha CGRP (1-37) injected, 1:1 fit of a flat sensorgram; run 130301_NAN-DS-049
T4 construct: also called human αCGRP; hαCGRP
T4 peptide: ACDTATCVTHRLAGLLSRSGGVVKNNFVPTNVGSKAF
Procedure: as §1, §2, §3

[6] = biological target: T4, human alpha CGRP (SEQ ID NO: 80); test: SPR Biacore 37 °C, protein captured as ligand, ha CGRP (1-37) injected, 1:1 fit of a flat sensorgram; run 130208_NAN-DS-047 [contd]
Procedure: as §1, §2, §3

[7] = biological target: T2, rat alpha CGRP (SEQ ID NO: 82); test: SPR Biacore 37 °C, protein captured as ligand, ra CGRP (1-37) injected, 1:1 fit of a flat sensorgram; run 130208_NAN-DS-047 [contd]
Procedure: as §1, §2, §3

[8] = biological target: T3, human beta CGRP (SEQ ID NO: 81); test: SPR Biacore 37 °C, protein captured as ligand, hb CGRP (1-37) injected, 1:1 fit of a flat sensorgram; run 130301_NAN-DS-049
Procedure: as §1, §2, §3

[9] = biological target: T2, rat alpha CGRP (SEQ ID NO: 82); test: SPR, 37 C, mutein captured, CGRP analyte
Summary of the method: (§4)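 Biotinylated lipocalin muteins were captured on streptavidin-oligo CAP chip, and CGRP was injected at 30, 3 and 0.3 nM or at a single 25 nM at 37 °C (180 s association, 5400 s dissociation) in HBS-EP+. Double-referenced sensorgrams were globally fit to a 1:1 model for ka and kd.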

[10] = biological target: T3, human beta CGRP (SEQ ID NO: 81); test: SPR, 37 C, mutein captured, CGRP analyte
Summary of the method: as §4

[11] = biological target: T4, human alpha CGRP (SEQ ID NO: 80); test: SPR, 37 C, mutein captured, CGRP analyte
Summary of the method: as §4

[12] = biological target: T1, rat beta CGRP (SEQ ID NO: 83); test: SPR, 37 C, mutein captured, CGRP analyte
Summary of the method: as §4

[13] = biological target: T1, rat beta CGRP (SEQ ID NO: 83); test: SPR Biacore 37 °C, mutein captured as ligand, sample PL1830 (rb CGRP) injected, 1:1 fit; repeat run 130903_NAN-DS-058 (not the run of Table 2) [contd]
Procedure: as §1, §2, §3

[14] = biological target: T1, rat beta CGRP (SEQ ID NO: 83); test: SPR Biacore 37 °C, mutein captured as ligand, rb CGRP (1-37) injected, 1:1 fit; repeat run 130208_NAN-DS-047 (not the run of Table 2) [contd]
Procedure: as §1
(§5) CGRP species were applied in three concentrations of 30 nM, 3 nM and 0.3 nM at a flow rate of 30 μL/min or in a single concentration of 25 nM per cycle as shown in FIG. 2. The dilutions were injected with association times of 180 s and dissociation times of 5400 sec to obtain ka and kd information. Regeneration of the chip surface was achieved by injecting 6 M Guanidinium-HCl+0.25 M NaOH (120 s) with a flow rate of 10 μL/min. Injection of regeneration solutions was followed by an extra wash step with HBS-EP+(1×; BR-1006-69; GE Healthcare) running buffer and a stabilization period of 120 s.
(§6) The data were double-referenced by subtraction of the corresponding signals measured for the control channel (loaded with Biotin CAPture reagent only) and by subtraction of buffer injections from the binding responses. Association rate constant ka and dissociation rate constant kd for the binding reaction were determined using Biacore T200 Evaluation Software V2.0 for data processing and kinetic fitting. The data were globally fit with 1:1 binding model.

[15] = biological target: T2, rat alpha CGRP (SEQ ID NO: 82); test: SPR Biacore 37 °C, mutein captured as ligand, sample PL1829 (ra CGRP) injected, 1:1 fit; repeat run 130903_NAN-DS-058 (not the run of Table 2) [contd]
Procedure: as §1, §2, §3

[16] = biological target: T4, human alpha CGRP (SEQ ID NO: 80); test: SPR Biacore 37 °C, mutein captured as ligand, ha CGRP (1-37) injected, 1:1 fit; repeat run 130208_NAN-DS-047 (not the run of Table 2) [contd]
Procedure: as §1, §5, §6

[17] = biological target: T1, rat beta CGRP (SEQ ID NO: 83); test: SPR Biacore 37 °C, mutein captured as ligand, rb CGRP sample PL1830 injected, 1:1 fit; repeat run 130903_NAN-DS-058 (not the run of Table 2) [contd]
[18] = biological target: T4, human alpha CGRP (SEQ ID NO: 80); test: SPR Biacore 37 °C, mutein captured as ligand, sample PL1827 (ha CGRP) injected, 1:1 fit; repeat run 130903_NAN-DS-058 (not the run of Table 2) [contd]
Procedure: as §1, §5, §6

[19] = biological target: T2, rat alpha CGRP (SEQ ID NO: 82); test: cell-based or functional assay
[20] = biological target: T3, human beta CGRP (SEQ ID NO: 81); test: cell-based or functional assay
[21] = biological target: T4, human alpha CGRP (SEQ ID NO: 80); test: cell-based or functional assay
[22] = biological target: T1, rat beta CGRP (SEQ ID NO: 83); test: cell-based or functional assay
[23] = biological target: T2, rat alpha CGRP (SEQ ID NO: 82); test: SPR Biacore 37 °C, mutein captured as ligand, ra CGRP (1-37) injected, 1:1 fit; repeat run 130208_NAN-DS-047 (not the run of Table 2) [contd]
Procedure: as §1, §5, §6

[24] = biological target: T3, human beta CGRP (SEQ ID NO: 81); test: SPR Biacore 37 °C, mutein captured as ligand, hb CGRP (1-37) injected, 1:1 fit; repeat run 130208_NAN-DS-047 (not the run of Table 2) [contd]
Procedure: as §1, §5, §6

[25] = biological target: T3, human beta CGRP (SEQ ID NO: 81); test: SPR Biacore 37 °C, mutein captured as ligand, sample PL1828 (hb CGRP) injected, 1:1 fit; repeat run 130903_NAN-DS-058 (not the run of Table 2) [contd]
Procedure: as §1, §2, §3

B1: hNGAL wildtype (SEQ ID NO:1) (other)
chain: QDSTSDLIPAPPLSKVPLQQNFQDNQFHGKWYVVGLAGNAILREDKDPQKMYATIYELKEDKSYNVTSVLFRKKKCDYWIRTFVPGSQPGEFTLGNIKSYPGLTSYLVRVVSTNYNQHAMVFFKKVSQNREYFKITLYGRTKELTSELKENFIRFSKSLGLPENHIVFPVPIDQCIDG
notes: also called human lipocalin 2; human Lcn 2
Q: What does the source list for B1?
A: koff [1]: 0.00233 s⁻¹; kon [1]: 1.62e+06 M⁻¹ s⁻¹; koff [2]: 0.00105 s⁻¹; kon [2]: 970000 M⁻¹ s⁻¹; koff [3]: 0.00414 s⁻¹; kon [3]: 1.1e+06 M⁻¹ s⁻¹; koff [4]: 0.000159 s⁻¹; kon [4]: 347000 M⁻¹ s⁻¹; koff [5]: 0.00221 s⁻¹; kon [5]: 1200 M⁻¹ s⁻¹; koff [6]: 0.00234 s⁻¹; kon [6]: 342000 M⁻¹ s⁻¹; koff [7]: 0.00259 s⁻¹; kon [7]: 1640 M⁻¹ s⁻¹; koff [8]: 0.0185 s⁻¹

B2: lipocalin mutein SEQ ID NO: 11 (designed binder)
chain: QDSTSDLIPAPPLSKVPLQQNFQDNQFHGKWYVVGWAGNTLLREDKDPIKMQAIIYELKEDRSYNVTWVYFSEKKCNYHIETFVPGSQPGEFTLGTIKSYPGETPILVRVVSTNYNQHAMVFFKGVNQNREIFEIILYGRTKELTNELKENFIRFSKSLGLPENHIVFPVPIDQCIDGSAWSHPQFEK
notes: biotinylated by NHS chemistry for capture in SPR
Q: B2 was tested. Which Kd [9] did it give?
A: Its Kd is 0.08 nM.

Q: What about the koff [9] of the same binder?
A: The koff was 7.6e-05 s⁻¹.

Q: And the kon [9]?
A: The kon was 984000 M⁻¹ s⁻¹.

Q: What about the Kd [10] of the same binder?
A: The Kd was 0.007 nM.

Q: And the koff [10]?
A: The koff was 5.63e-05 s⁻¹.

Q: And the kon [10]?
A: The kon was 7.91e+06 M⁻¹ s⁻¹.

Q: What about the Kd [11] of the same binder?
A: Its Kd is 0.015 nM.

Q: And the koff [11]?
A: The koff was 4.55e-05 s⁻¹.

Q: And the kon [11]?
A: Its kon is 3.08e+06 M⁻¹ s⁻¹.

Q: What about the Kd [12] of the same binder?
A: Its Kd is 0.042 nM.

Q: And the koff [12]?
A: Its koff is 7.3e-05 s⁻¹.

Q: What about the kon [12] of the same binder?
A: Its kon is 1.74e+06 M⁻¹ s⁻¹.

Q: What about the kon [13] of the same binder?
A: The kon was 1.75e+06 M⁻¹ s⁻¹.

Q: What about the koff [14] of the same binder?
A: Its koff is 5.56e-05 s⁻¹.

Q: And the kon [14]?
A: Its kon is 969000 M⁻¹ s⁻¹.

Q: What about the koff [15] of the same binder?
A: Its koff is 8.08e-05 s⁻¹.

Q: And the kon [15]?
A: Its kon is 1.58e+06 M⁻¹ s⁻¹.

Q: And the koff [16]?
A: The koff was 5.31e-05 s⁻¹.

Q: What about the kon [16] of the same binder?
A: The kon was 2.02e+06 M⁻¹ s⁻¹.

Q: And the koff [17]?
A: Its koff is 6.38e-05 s⁻¹.

Q: What about the koff [18] of the same binder?
A: The koff was 6.55e-05 s⁻¹.

Q: And the kon [18]?
A: The kon was 1.76e+06 M⁻¹ s⁻¹.

Q: What about the “IC50, CGRP-induced cAMP production, L6 cells” value [19] of the same binder?
A: The value was 0.08 nM.

Q: And the “IC50, CGRP-induced cAMP production, SK-N-MC cells” value [20]?
A: Its value is 0.22 nM.

Q: And the “IC50, CGRP-induced cAMP production, SK-N-MC cells” value [21]?
A: The value was 0.11 nM.

Q: What about the “IC50, CGRP-induced cAMP production, L6 cells” value [22] of the same binder?
A: Its value is 0.06 nM.

Q: And the koff [23]?
A: Its koff is 7.72e-05 s⁻¹.

Q: What about the kon [23] of the same binder?
A: Its kon is 867000 M⁻¹ s⁻¹.

Q: What about the koff [24] of the same binder?
A: Its koff is 4.61e-05 s⁻¹.

Q: And the kon [24]?
A: Its kon is 4.14e+06 M⁻¹ s⁻¹.

Q: What about the koff [25] of the same binder?
A: The koff was 3.73e-05 s⁻¹.

Q: What about the kon [25] of the same binder?
A: The kon was 2.41e+06 M⁻¹ s⁻¹.
